Measured values from the Immune Epitope Database (IEDB).

Columns and labels:
HLA-A*02:01 [1] = experiment: IEDB peptide-MHC binding, purified MHC/competitive/fluorescence; ≥ and ≤ were set here for values at or beyond the usual limits of such assays
HLA-B*07:02 [2] = experiment: as above
HLA-A*24:02 = experiment: as above
HLA-B*15:03 = experiment: IEDB peptide-MHC binding, purified MHC/competitive/radioactivity; filed as Kd, often an IC50 or EC50 that approximates it; ≥ and ≤ were set here for values at or beyond the usual limits of such assays; conditions: source organism: Vaccinia virus WR
HLA-B*15:01 [3] = experiment: IEDB peptide-MHC binding, purified MHC/competitive/fluorescence; ≥ and ≤ were set here for values at or beyond the usual limits of such assays
HLA-B*83:01 = experiment: IEDB peptide-MHC binding, purified MHC/competitive/fluorescence; filed as Kd, often an IC50 or EC50 that approximates it; ≥ and ≤ were set here for values at or beyond the usual limits of such assays
HLA-B*45:06 = experiment: as above
HLA-B*15:42 = experiment: as above
HLA-C*04:01 = experiment: as above
HLA-B*51:01 [4] = experiment: IEDB peptide-MHC binding, purified MHC/direct/fluorescence; filed as Kd, often an IC50 or EC50 that approximates it; ≥ and ≤ were set here for values at or beyond the usual limits of such assays; conditions: source organism: Helicobacter pylori
HLA-B*58:01 [5] = experiment: IEDB peptide-MHC binding, purified MHC/competitive/fluorescence; filed as Kd, often an IC50 or EC50 that approximates it; ≥ and ≤ were set here for values at or beyond the usual limits of such assays; conditions: source organism: Escherichia coli
HLA-A*68:02 = experiment: as above; conditions: source organism: Yersinia pestis Nepal516
HLA-A*02:03 = experiment: as above; conditions: source organism: Encephalitozoon cuniculi GB-M1
HLA-A*29:02 = experiment: as above; conditions: source organism: Encephalitozoon cuniculi GB-M1
HLA-A*24:03 = experiment: as above; conditions: source organism: Encephalitozoon cuniculi GB-M1
HLA-B*46:01 = experiment: as above
HLA-A*02:19 = experiment: as above; conditions: source organism: Encephalitozoon cuniculi GB-M1
HLA-B*39:01 = experiment: as above; conditions: source organism: Encephalitozoon cuniculi GB-M1
HLA-A*02:01 [6] = experiment: as above; conditions: source organism: Encephalitozoon cuniculi GB-M1
HLA-A*02:12 = experiment: as above; conditions: source organism: Encephalitozoon cuniculi GB-M1
HLA-A*02:11 = experiment: as above; conditions: source organism: Encephalitozoon cuniculi GB-M1
HLA-B*15:01 [7] = experiment: as above; conditions: source organism: Encephalitozoon cuniculi GB-M1
HLA-B*27:03 = experiment: as above; conditions: source organism: Encephalitozoon cuniculi GB-M1
HLA-B*51:01 [8] = experiment: as above; conditions: source organism: Encephalitozoon cuniculi GB-M1
HLA-A*03:01 [9] = experiment: as above; conditions: source organism: Encephalitozoon cuniculi GB-M1
HLA-B*57:01 = experiment: as above; conditions: source organism: Encephalitozoon cuniculi GB-M1
HLA-B*18:01 [10] = experiment: as above; conditions: source organism: Encephalitozoon cuniculi GB-M1
HLA-A*26:01 [11] = experiment: as above; conditions: source organism: Encephalitozoon cuniculi GB-M1
HLA-C*07:02 = experiment: IEDB peptide-MHC binding, purified MHC/direct/fluorescence; filed as Kd, often an IC50 or EC50 that approximates it; ≥ and ≤ were set here for values at or beyond the usual limits of such assays; conditions: source organism: Escherichia coli O157:H7 str. EDL933
HLA-B*58:01 [12] = experiment: as above; conditions: source organism: Escherichia coli O157:H7
HLA-A*02:01 [13] = experiment: as above; conditions: source organism: Escherichia coli O157:H7
HLA-B*08:01 = experiment: as above; conditions: source organism: Escherichia coli O157:H7
HLA-B*27:05 = experiment: as above; conditions: source organism: Escherichia coli O157:H7
HLA-B*07:02 [14] = experiment: as above; conditions: source organism: Escherichia coli O157:H7
HLA-B*44:02 = experiment: as above; conditions: source organism: Escherichia coli O157:H7
HLA-A*01:01 = experiment: as above; conditions: source organism: Escherichia coli O157:H7
HLA-A*31:01 = experiment: as above; conditions: source organism: Escherichia coli O157:H7
HLA-B*15:01 [15] = experiment: as above; conditions: source organism: Escherichia coli O157:H7
HLA-B*40:01 = experiment: as above
HLA-C*06:02 = experiment: as above
HLA-A*03:01 [16] = experiment: as above; conditions: source organism: Escherichia coli O157:H7
HLA-A*11:01 = experiment: as above; conditions: source organism: Escherichia coli O157:H7
HLA-A*69:01 = experiment: as above; conditions: source organism: Escherichia coli O157:H7
HLA-A*26:01 [17] = experiment: as above; conditions: source organism: Escherichia coli O157:H7
HLA-C*15:02 = experiment: as above; conditions: source organism: Burkholderia vietnamiensis G4
HLA-B*18:01 [18] = experiment: as above; conditions: source organism: Bordetella avium
HLA-C*14:02 = experiment: as above; conditions: source organism: Burkholderia vietnamiensis G4
[19] = source organism: Zaire ebolavirus
[20] = source organism: Vaccinia virus
[21] = source organism: Helicobacter pylori 26695
[22] = source organism: Sudan ebolavirus
[23] = source organism: Yersinia pestis Nepal516
[24] = source organism: human gammaherpesvirus 4
[25] = source organism: Burkholderia vietnamiensis G4

**Q.** Which results are given for ARLLNLSGV?
**A.** IC50 (HLA-A*02:01 [1]; [19]): 9.98 µM; IC50 (HLA-B*07:02 [2]; [19]): ≥ 152 µM; IC50 (HLA-A*24:02; [19]): 32.8 µM

**Q.** For FANPLSNPF, which Kd (HLA-B*15:03) is on record?
**A.** 0.00192 µM

**Q.** And the IC50 (HLA-A*02:01 [1]; [20])?
**A.** 2.53 µM

**Q.** And the IC50 (HLA-B*07:02 [2]; [20])?
**A.** 69.1 µM

**Q.** What about the IC50 (HLA-B*15:01 [3]; [20]) of the same sequence?
**A.** 5.74 µM

**Q.** What about the IC50 (HLA-A*24:02; [20]) of the same sequence?
**A.** 2.78 µM

**Q.** How did the Kd (HLA-B*83:01; [21]) turn out when FPIQDFPII was run?
**A.** 2.74 µM

**Q.** And the Kd (HLA-B*45:06; [21])?
**A.** ≥ 5 µM

**Q.** And the Kd (HLA-B*15:42; [21])?
**A.** ≥ 5 µM

**Q.** And the Kd (HLA-C*04:01; [21])?
**A.** ≥ 5 µM

**Q.** What about the Kd (HLA-B*51:01 [4]) of the same sequence?
**A.** 0.156 µM

**Q.** FQKAFSMPL was tested. Which IC50 (HLA-A*02:01 [1]; [22]) did it give?
**A.** 0.784 µM

**Q.** And the IC50 (HLA-B*07:02 [2]; [22])?
**A.** 16 µM

**Q.** And the IC50 (HLA-B*15:01 [3]; [22])?
**A.** 2.11 µM

**Q.** And the IC50 (HLA-A*24:02; [22])?
**A.** 27.5 µM

**Q.** KGIHPQNHL was tested. Which Kd (HLA-B*58:01 [5]) did it give?
**A.** ≥ 20 µM

**Q.** Which results are given for LLQRWGGTC?
**A.** IC50 (HLA-A*02:01 [1]; [19]): 2.49 µM; IC50 (HLA-B*07:02 [2]; [19]): ≥ 473 µM; IC50 (HLA-B*15:01 [3]; [19]): 41.3 µM

**Q.** MTHPQSEAA was tested. Which Kd (HLA-B*83:01; [23]) did it give?
**A.** ≥ 5 µM

**Q.** And the Kd (HLA-B*15:42; [23])?
**A.** ≥ 5 µM

**Q.** What about the Kd (HLA-A*68:02) of the same sequence?
**A.** ≤ 0.0001 µM

**Q.** And the Kd (HLA-C*04:01; [23])?
**A.** ≥ 5 µM

**Q.** With NLFEIEWEE as the sequence, how does the Kd (HLA-A*02:03) read?
**A.** ≥ 20 µM

**Q.** And the Kd (HLA-A*29:02)?
**A.** ≥ 20 µM

**Q.** And the Kd (HLA-A*24:03)?
**A.** ≥ 20 µM

**Q.** What about the Kd (HLA-B*46:01; source organism: Encephalitozoon cuniculi GB-M1) of the same sequence?
**A.** ≥ 20 µM

**Q.** And the Kd (HLA-A*02:19)?
**A.** ≥ 20 µM

**Q.** And the Kd (HLA-B*39:01)?
**A.** ≥ 20 µM

**Q.** And the Kd (HLA-A*02:01 [6])?
**A.** ≥ 20 µM

**Q.** What about the Kd (HLA-A*02:12) of the same sequence?
**A.** 0.298 µM

**Q.** And the Kd (HLA-A*02:11)?
**A.** ≥ 20 µM

**Q.** What about the Kd (HLA-B*15:01 [7]) of the same sequence?
**A.** ≥ 20 µM

**Q.** And the Kd (HLA-B*27:03)?
**A.** ≥ 20 µM

**Q.** What about the Kd (HLA-B*51:01 [8]) of the same sequence?
**A.** ≥ 20 µM

**Q.** What about the Kd (HLA-A*03:01 [9]) of the same sequence?
**A.** ≥ 20 µM

**Q.** And the Kd (HLA-B*57:01)?
**A.** ≥ 20 µM

**Q.** What about the Kd (HLA-B*18:01 [10]) of the same sequence?
**A.** ≥ 20 µM

**Q.** What about the Kd (HLA-A*26:01 [11]) of the same sequence?
**A.** ≥ 20 µM

**Q.** What does the source list for RPVVLTGGT?
**A.** IC50 (HLA-A*02:01 [1]; source organism: Variola virus): ≥ 89.9 µM; IC50 (HLA-B*07:02 [2]; source organism: Variola virus): 24.1 µM; IC50 (HLA-A*24:02; source organism: Variola virus): 0.104 µM

**Q.** Which Kd (HLA-C*07:02) does the source give for RRNDVARIF here?
**A.** 0.041 µM

**Q.** And the Kd (HLA-B*58:01 [12])?
**A.** ≥ 20 µM

**Q.** And the Kd (HLA-A*02:01 [13])?
**A.** ≥ 20 µM

**Q.** What about the Kd (HLA-B*08:01) of the same sequence?
**A.** 1.9 µM

**Q.** What about the Kd (HLA-B*27:05) of the same sequence?
**A.** 0.12 µM

**Q.** What about the Kd (HLA-B*07:02 [14]) of the same sequence?
**A.** ≥ 20 µM

**Q.** What about the Kd (HLA-B*44:02) of the same sequence?
**A.** ≥ 20 µM

**Q.** And the Kd (HLA-A*01:01)?
**A.** ≥ 20 µM

**Q.** What about the Kd (HLA-A*31:01) of the same sequence?
**A.** ≥ 20 µM

**Q.** And the Kd (HLA-B*15:01 [15])?
**A.** ≥ 20 µM

**Q.** And the Kd (HLA-B*40:01; source organism: Escherichia coli O157:H7)?
**A.** ≥ 20 µM

**Q.** What about the Kd (HLA-C*06:02; source organism: Escherichia coli O157:H7 str. EDL933) of the same sequence?
**A.** 0.022 µM

**Q.** What about the Kd (HLA-A*03:01 [16]) of the same sequence?
**A.** ≥ 20 µM

**Q.** What about the Kd (HLA-A*11:01) of the same sequence?
**A.** ≥ 20 µM

**Q.** And the Kd (HLA-A*69:01)?
**A.** ≥ 20 µM

**Q.** What about the Kd (HLA-A*26:01 [17]) of the same sequence?
**A.** ≥ 20 µM

**Q.** For RRVRRRVLV, which Kd (HLA-C*06:02; [24]) is on record?
**A.** 0.316 µM

**Q.** Which results are given for WEMRAGREI?
**A.** Kd (HLA-B*83:01; [24]): ≥ 5 µM; Kd (HLA-B*45:06; [24]): ≥ 5 µM; Kd (HLA-B*15:42; [24]): ≥ 5 µM; Kd (HLA-C*04:01; [24]): ≥ 5 µM

**Q.** For WMRWGGWPF, which Kd (HLA-B*83:01; [25]) is on record?
**A.** ≥ 5 µM

**Q.** And the Kd (HLA-B*46:01; [25])?
**A.** 0.418 µM

**Q.** And the Kd (HLA-B*45:06; [25])?
**A.** ≥ 5 µM

**Q.** What about the Kd (HLA-B*15:42; [25]) of the same sequence?
**A.** ≥ 5 µM

**Q.** What about the Kd (HLA-C*15:02) of the same sequence?
**A.** ≥ 20 µM

**Q.** What about the Kd (HLA-B*40:01; source organism: Bordetella avium) of the same sequence?
**A.** 0.512 µM

**Q.** What about the Kd (HLA-C*06:02; [25]) of the same sequence?
**A.** ≥ 20 µM

**Q.** And the Kd (HLA-B*18:01 [18])?
**A.** 4.66 µM

**Q.** And the Kd (HLA-C*14:02)?
**A.** 4.72 µM
